Key:
[1] = target: T1, human serum albumin (human, UniProt P02768 25-609); test: X-ray co-crystal structure and in silico modelling
T1 construct: also called HSA
Protocol: The crystal structure was determined as follows: the purified proteins were used in crystallization trials employing both, a standard screen of approximately 1200 different conditions, as well as crystallization conditions identified using literature data. […] These conditions were also refined by systematically varying pH or precipitant concentrations. Crystals were obtained via the method of co-crystallization.
Crystals have been flash-frozen and measured at a temperature of 100K. The X-ray diffraction have been collected at the SWISS LIGHT SOURCE (SLS, Villigen, Switzerland) using cryogenic conditions. Data were processed using the programs XDS and XSCALE. The phase information necessary to determine and analyze the structure was obtained by molecular replacement. Subsequent model building and refinement was performed with the software packages CCP4 and COOT. The peptide parameterization was carried out with the program [sequence].

[2] = target: T1, human serum albumin; test: solution binding competition ELISA: phage pre-incubated with 1 µM HSA, captured on coated HSA
Protocol: A competition ELISA was performed to determine the relative binding affinity for the selected phage clones. 96-well Nunc Maxisorp plates were coated with 2 μg/ml HSA in coating buffer at 4° C. Plates were blocked with SuperblockT20 (Pierce) for 1 h at room temperature. The microtiter plates were washed with wash buffer (PBS, 0.05% Tween 20).
Unbound phage was captured by transferring 100 μl of the well mixture to the HSA coated Maxisorp plate and incubating at room temperature for 30 minutes. The plate with captured phage was washed with PBS-0.05% Tween 20 five times. Bound phages were detected with anti-M13 and goat-anti mouse IRDye conjugate. The amount of IRDye bound was measured on Odyssey (LI-COR Biosciences). The ratio of phage binding was calculated by the following equation: fluorescence signal of well with competitor/fluorescence signal of well with no competitor (Table III).

[3] = target: T1, human serum albumin; test: SPR, BIAcore 3000, HSA on CM5 chip
Protocol: For this purpose, the fusion proteins were expressed in E. coli TG1 cells. […] Coating of the chip (CM5) was performed by amine coupling using NHS/EDC for activation and ethanolamine for deactivation (Biacore amine coupling kit). HBS-EP was used as flow buffer at a rate of 10 μl min-1. 20 μl of sample was injected for 120 s.

[4] = target: T1, human serum albumin; test: SPR, Biacore 3000, HSA on CM5 chip, pH5 against pH7
Protocol: (§1) In brief, HSA and cynoSA were amine-coupled to a separate CM5 sensor chip at a density of respectively 1800RU and 1900RU. […] The three buffers used contained 50 mM phosphate, 150 mM NaCl and 0.005% surfactant P and were adjusted to either pH5, pH7 or pH8. Samples were injected at a flow-rate of 45 μL/min, association and dissociation were monitored during 120 sec and 300 sec. Binding curves were subsequently used to calculate the KD, association—and dissociation-rate constants with the BiaEvaluation software.

[5] = target: T2, cynomolgus monkey serum albumin (cynomolgus monkey, UniProt A2V9Z4 25-608); test: SPR, Biacore 3000, cynoSA on CM5 chip, pH5 against pH7
T2 construct: amine-coupled to a CM5 chip; also called CSA; cynoSA
T2 sequence (A2V9Z4 25-608 limits assumed): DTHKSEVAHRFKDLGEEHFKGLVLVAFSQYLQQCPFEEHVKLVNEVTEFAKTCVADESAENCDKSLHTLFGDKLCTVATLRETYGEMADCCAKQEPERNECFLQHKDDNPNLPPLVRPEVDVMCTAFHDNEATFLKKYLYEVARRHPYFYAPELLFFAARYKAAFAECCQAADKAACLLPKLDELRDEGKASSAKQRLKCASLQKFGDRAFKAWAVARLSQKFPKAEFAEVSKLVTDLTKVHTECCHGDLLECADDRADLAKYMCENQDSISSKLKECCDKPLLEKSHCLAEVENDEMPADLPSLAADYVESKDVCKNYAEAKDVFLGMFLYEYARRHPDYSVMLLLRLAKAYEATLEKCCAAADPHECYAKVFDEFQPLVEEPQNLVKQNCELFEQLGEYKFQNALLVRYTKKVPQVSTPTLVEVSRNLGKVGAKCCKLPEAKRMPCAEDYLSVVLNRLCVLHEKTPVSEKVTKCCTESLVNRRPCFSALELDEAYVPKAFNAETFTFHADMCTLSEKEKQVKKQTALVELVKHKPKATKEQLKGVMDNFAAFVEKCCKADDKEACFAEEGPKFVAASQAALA
Protocol: as §1

[6] = target: T3, von Willebrand factor (human, UniProt P04275 764-2813); test: inhibition ELISA: ristocetin-induced binding of plasma vWF to fixed human platelets (glycoprotein Ib), bound vWF detected with anti-VWF-HRP
T3 construct: vWF of the human plasma in which the compounds were diluted; multimeric; also called vWF; VWF

B1: peptide of SEQ ID NO: 143 (peptide)
peptide: AAARYWDYDVFGGGTPVGGAAA
notes: 56E4 with one additional N-terminal and three C-terminal alanines; used for the co-crystal with HSA; also called peptide based on EXP56E4
binding result [1]: binds

AALYDDYDVFGGGTPVGG (also called 01C7; PMP26A3) [PMP56A3]
Ratio 1 µM/0 µM HSA [2]: 0.47

AALYDDYDVFGGGTPAGG [01B3]
Ratio 1 µM/0 µM HSA [2]: 0.42

AAFYDDYDVFGGGTPAGG (also called 01G7) [PMP56H5]
Ratio 1 µM/0 µM HSA [2]: 0.43

B2: 2D3-56H5 fusion protein (other)
chain: EVQLVESGGSLVQPGGSLRLSCAASGFTFDDYAMSWVRQVPGKGLEWVSSINWSGTHTDYADSVKGRFTISRNNANNTLYLQMNSLKSEDTAVYYCAKNWRDAGTTWFEKSGSAGQGTQVTVSSGGGGSGGGSAAAFYDDYDVFGGGTPAGGAAAEQKLISEEDLNGAAHHHHHH
Kd [3]: ~1200 nM
koff [3]: 0.0093 s⁻¹
kon [3]: 7570 M⁻¹ s⁻¹

B3: 12A2 sv1-AAA-12A2 sv1-9GS-59C2 (VHH)
chain: DVQLVESGGGLVQPGGSLRLSCAASGRTFSYNPMGWFRQAPGKGRELVAAISRTGGSTYYPESVEGRFTISRDNAKRTVYLQMNSLRAEDTAVYYCAAAGVRAEQGRVRTLPSEYTFWGQGTQVTVSSAAAEVQLVESGGGLVQPGGSLRLSCAASGRTFSYNPMGWFRQAPGKGRELVAAISRTGGSTYYPESVEGRFTISRDNAKRTVYLQMNSLRAEDTAVYYCAAAGVRAEQGRVRTLPSEYTFWGQGTQVTVSSGGGGSGGGSRDWDFDVFGGGTPVGG
notes: bivalent anti-vWF Nanobody with one C-terminal 59C2 peptide; also called vWF-0055; vWF 0055
fold decrease of affinity at pH5 [4]: ~10 fold
fold decrease of affinity at pH5 [5]: ~10 fold
IC50 (read off the curve) [6]: ~10 nM
